B1: anti-hu-EphA10 antibody Clone 4 (antibody, IgG1, V domains shown)
VH: EVKLEESGGGLVQPGGSMKLSCVASGFTFSYYWMNWVRQSPEKGLEWVAEIRLKSNNYATHYAESVKGRFTISRDDSKSSVYLQMNNLRAEDSGIYYCTFYYGSSAWFAYWGQGTLVTVSA
VL: DIQMTQSPASLSASVGETVTITCRASENIYSYLAWYQQKQGKSPQLLVYNVKTLTEGVPSRFSGSGSGTQFSLKIDSLQPEDFGSYYCQHHYVTPPTFGAGTKLELK
B2: anti-hu-EphA10 antibody Clone 8 (antibody, IgG1, V domains shown)
VH: QVQLQQSGPELVKPGPLVKISCKASGYTFTSYDITWVKQRPGQGLEWIGWIYPGDGSTKYNEKFKGKATLTADKSSSTAYMQLSSLTSENSAVYFCARGGRLPYFDYWGQGTTLTVSS
VL: NIVLTQSPASLAVSLGQRATISCRASESVDSYGNSFMHWYQQKPGQPPKLLIYLASNLESAVPARFSGSGSRTDFTLTIDPVEADDAATYYCQQNNEYPWTFGGGTKLEIK
B3: anti-hu-EphA10 antibody Clone 9 (antibody, IgG1, V domains shown)
VH: QVQLQQSGAELMKPGASVKISCKATGYTFSTYWIEWVKQRPGHGLEWIGEILPGSGRTNYKEKFKDKATFTANTSSTTAYMQLSSLTSEDSAVYYCAIDWYWGQGTTLTVSS
VL: QIVLTQSPAIMSASPGEKVTITCSASSSVSYMYWFQQKPGTSPKLWIYSTSNLASGVPARFSGSGSGTSYSLTISRMEAEDAATYYCQQRNSYPPTFGGGTKLEIK
notes: also called anti-EphA10 (clone 9); anti-EphA10 (clone 9)-pHrodo

target: T1, recombinant hu-EphA10 Fc chimera protein [the extracellular domain (Glu34-Ala565)] (human, UniProt Q5JZY3 34-565); assay: ELISA screening (FIG. 1C)
T1 construct: range 34-565; Purified from 293T cells; also called hu-EphA10 Fc protein; not shown: Fc part of the chimera
T1 sequence (looked up): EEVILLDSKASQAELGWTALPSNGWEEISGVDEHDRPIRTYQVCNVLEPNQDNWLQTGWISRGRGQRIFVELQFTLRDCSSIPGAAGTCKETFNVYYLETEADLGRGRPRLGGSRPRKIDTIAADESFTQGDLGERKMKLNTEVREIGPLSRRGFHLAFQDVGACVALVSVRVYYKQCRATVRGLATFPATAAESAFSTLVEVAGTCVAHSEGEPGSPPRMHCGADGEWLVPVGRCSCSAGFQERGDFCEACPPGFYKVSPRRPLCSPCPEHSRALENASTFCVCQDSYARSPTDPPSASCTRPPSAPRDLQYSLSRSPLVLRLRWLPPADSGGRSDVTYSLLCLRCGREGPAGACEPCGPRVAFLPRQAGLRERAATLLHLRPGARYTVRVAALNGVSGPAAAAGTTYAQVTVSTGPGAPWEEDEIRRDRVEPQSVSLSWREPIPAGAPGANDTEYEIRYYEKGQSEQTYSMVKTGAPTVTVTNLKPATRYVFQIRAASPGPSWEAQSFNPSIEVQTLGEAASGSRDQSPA

Binding result, binds:
B1
B2
B3

— US20220389106A1 (University of Texas, published 2022)
